Source: US20120122783A1 (INDIANA UNIVERSITY RESEARCH AND TECHOLOGY, published 2012)
Read-outs that look alike come from different tables or passages of the source. Square brackets hold non-standard residues; d marks the D form. Ends that are not written are not given here. Abu(4-SO3H) = N[C@@H](CCS(=O)(=O)O)C(=O)O; PhLac = O=C(O)[C@@H](O)Cc1ccccc1; PLA = not defined here

Tests used:
[1] = biological target: T1, human glucagon receptor (human, UniProt P47871 26-477); assay: cell-based or functional assay
[2] = biological target: T1, human glucagon receptor; assay: SPA competition vs 125I-glucagon, receptor membranes
[3] = biological target: human GLP-1 receptor (human, UniProt P43220 24-463); assay: cell-based or functional assay
[4] = biological target: T1, human glucagon receptor; assay: cell-based or functional assay; remark: listed apart in the source
[5] = biological target: T1, human glucagon receptor; assay: cell-based or functional assay; remark: listed apart in the source
[6] = biological target: T1, human glucagon receptor; assay: cell-based or functional assay; remark: listed apart in the source
[7] = biological target: T1, human glucagon receptor; assay: cell-based or functional assay; remark: listed apart in the source
[8] = biological target: T1, human glucagon receptor; assay: cell-based or functional assay; remark: listed apart in the source
[9] = biological target: T1, human glucagon receptor; assay: cell-based or functional assay; remark: listed apart in the source
[10] = biological target: T1, human glucagon receptor; assay: cell-based or functional assay; remark: listed apart in the source

T1 sequence (P47871 26-477): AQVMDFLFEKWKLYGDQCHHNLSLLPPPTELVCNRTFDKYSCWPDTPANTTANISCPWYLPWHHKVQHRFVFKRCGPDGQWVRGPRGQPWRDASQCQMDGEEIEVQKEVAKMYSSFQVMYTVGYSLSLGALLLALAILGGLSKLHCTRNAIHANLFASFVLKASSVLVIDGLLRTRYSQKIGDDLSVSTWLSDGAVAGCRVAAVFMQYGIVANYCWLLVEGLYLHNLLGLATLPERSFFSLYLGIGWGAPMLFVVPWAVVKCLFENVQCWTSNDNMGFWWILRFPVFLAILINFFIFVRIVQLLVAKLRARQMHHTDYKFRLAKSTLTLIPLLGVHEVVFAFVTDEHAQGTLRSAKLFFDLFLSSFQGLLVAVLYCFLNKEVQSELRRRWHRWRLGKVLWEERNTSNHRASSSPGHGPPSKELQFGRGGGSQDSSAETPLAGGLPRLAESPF
Sequence of human GLP-1 receptor (P43220 24-463): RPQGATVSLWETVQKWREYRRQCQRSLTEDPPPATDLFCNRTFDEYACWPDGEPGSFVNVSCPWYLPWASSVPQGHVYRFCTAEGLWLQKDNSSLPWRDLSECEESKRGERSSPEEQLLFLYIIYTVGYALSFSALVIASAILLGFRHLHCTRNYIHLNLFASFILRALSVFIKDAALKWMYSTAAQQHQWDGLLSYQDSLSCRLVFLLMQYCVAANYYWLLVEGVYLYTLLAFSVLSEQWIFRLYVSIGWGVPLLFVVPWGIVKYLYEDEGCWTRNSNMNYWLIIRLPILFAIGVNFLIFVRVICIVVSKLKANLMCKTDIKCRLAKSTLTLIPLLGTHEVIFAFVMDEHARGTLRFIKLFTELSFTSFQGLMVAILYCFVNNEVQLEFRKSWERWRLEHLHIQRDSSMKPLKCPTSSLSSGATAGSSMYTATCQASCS

[desHis^1, desPhe^6] Glucagon-NH2 (peptide)
cAMP Induction EC50 [1]: 1180 nM
IC50 [2]: 130 nM

Oxyntomodulin KRNR (peptide)
cAMP Induction EC50 [1]: 2.77 nM
cAMP Induction EC50 [3]: 3.21 nM

[PLA]TSEYSKYLDSRRAQDFVQWLMNTGPSSGAPPPS-NH2 (reading uncertain) [[PLA6, E9]Glucagon(aa6-29+CEX)-NH2]
IC50 (nM) (cAMP, inhibit Glucagon) 0.1 nM or 0.2 nM [4]: 24.8 nM

[PhLac]TS[Abu(4-SO3H)]YSKYLDSRRAQDFVQWLMNT-NH2 [[PLA6, hCys(SO3)9]Glucagon(aa6-29)-NH2]
IC50 (nM) (cAMP, inhibit Glucagon) 0.1 nM or 0.2 nM [4]: 40.2 nM

B1: [PLA^5, E^9]Glucagon(aa5-29)-NH2 (peptide)
peptide: [PhLac]FTSEYSKYLDSRRAQDFVQWLMNT-NH2
modifications: N-terminus assumed
SMILES: CSCC[C@H](NC(=O)[C@H](CC(C)C)NC(=O)[C@H](Cc1c[nH]c2ccccc12)NC(=O)[C@H](CCC(N)=O)NC(=O)[C@@H](NC(=O)[C@H](Cc1ccccc1)NC(=O)[C@H](CC(=O)O)NC(=O)[C@H](CCC(N)=O)NC(=O)[C@H](C)NC(=O)[C@H](CCCNC(=N)N)NC(=O)[C@H](CCCNC(=N)N)NC(=O)[C@H](CO)NC(=O)[C@H](CC(=O)O)NC(=O)[C@H](CC(C)C)NC(=O)[C@H](Cc1ccc(O)cc1)NC(=O)[C@H](CCCCN)NC(=O)[C@H](CO)NC(=O)[C@H](Cc1ccc(O)cc1)NC(=O)[C@H](CCC(=O)O)NC(=O)[C@H](CO)NC(=O)[C@@H](NC(=O)[C@H](Cc1ccccc1)NC(=O)[C@@H](O)Cc1ccccc1)[C@@H](C)O)C(C)C)C(=O)N[C@@H](CC(N)=O)C(=O)N[C@H](C(N)=O)[C@@H](C)O
IC50 (nM) (cAMP, inhibit 0.8 mM Glucagon) [5]: 328 nM

B2: [PLA^4, E^9]Glucagon(aa4-29)-NH2 (peptide)
peptide: [PhLac]TFTSEYSKYLDSRRAQDFVQWLMNT-NH2
modifications: N-terminus assumed
SMILES: CSCC[C@H](NC(=O)[C@H](CC(C)C)NC(=O)[C@H](Cc1c[nH]c2ccccc12)NC(=O)[C@H](CCC(N)=O)NC(=O)[C@@H](NC(=O)[C@H](Cc1ccccc1)NC(=O)[C@H](CC(=O)O)NC(=O)[C@H](CCC(N)=O)NC(=O)[C@H](C)NC(=O)[C@H](CCCNC(=N)N)NC(=O)[C@H](CCCNC(=N)N)NC(=O)[C@H](CO)NC(=O)[C@H](CC(=O)O)NC(=O)[C@H](CC(C)C)NC(=O)[C@H](Cc1ccc(O)cc1)NC(=O)[C@H](CCCCN)NC(=O)[C@H](CO)NC(=O)[C@H](Cc1ccc(O)cc1)NC(=O)[C@H](CCC(=O)O)NC(=O)[C@H](CO)NC(=O)[C@@H](NC(=O)[C@H](Cc1ccccc1)NC(=O)[C@@H](NC(=O)[C@@H](O)Cc1ccccc1)[C@@H](C)O)[C@@H](C)O)C(C)C)C(=O)N[C@@H](CC(N)=O)C(=O)N[C@H](C(N)=O)[C@@H](C)O
IC50 (nM) (cAMP, inhibit 0.8 mM Glucagon) [5]: 84.4 nM

SQGTFTS[Abu(4-SO3H)]YSKYLDSRRAQDFVQWLMNT-NH2 [[hCys^9(SO3H)]Glucagon(aa2-29)-NH2]
cAMP IC50 [6]: 147 nM

FTS[Abu(4-SO3H)]YSKYLDSRRAQDFVQWLMNT-NH2 [[hCys^9(SO3H)]Glucagon(aa6-29)-NH2]
cAMP IC50 [6]: 133 nM
cAMP IC50 [7]: 133 nM

B3: [hCys^9(SO3H)]Glucagon(aa5-29)-NH2 (peptide)
peptide: TFTS[Abu(4-SO3H)]YSKYLDSRRAQDFVQWLMNT-NH2
modifications: N-terminus assumed
SMILES: CSCC[C@H](NC(=O)[C@H](CC(C)C)NC(=O)[C@H](Cc1c[nH]c2ccccc12)NC(=O)[C@H](CCC(N)=O)NC(=O)[C@@H](NC(=O)[C@H](Cc1ccccc1)NC(=O)[C@H](CC(=O)O)NC(=O)[C@H](CCC(N)=O)NC(=O)[C@H](C)NC(=O)[C@H](CCCNC(=N)N)NC(=O)[C@H](CCCNC(=N)N)NC(=O)[C@H](CO)NC(=O)[C@H](CC(=O)O)NC(=O)[C@H](CC(C)C)NC(=O)[C@H](Cc1ccc(O)cc1)NC(=O)[C@H](CCCCN)NC(=O)[C@H](CO)NC(=O)[C@H](Cc1ccc(O)cc1)NC(=O)[C@H](CCS(=O)(=O)O)NC(=O)[C@H](CO)NC(=O)[C@@H](NC(=O)[C@H](Cc1ccccc1)NC(=O)[C@@H](N)[C@@H](C)O)[C@@H](C)O)C(C)C)C(=O)N[C@@H](CC(N)=O)C(=O)N[C@H](C(N)=O)[C@@H](C)O
cAMP IC50 [6]: 98.3 nM

B4: [PLA6, D9]Glucagon(aa6-29)-NH2 (peptide)
peptide: [PhLac]TSDYSKYLDSRRAQDFVQWLMNT-NH2
modifications: N-terminus assumed
SMILES: CSCC[C@H](NC(=O)[C@H](CC(C)C)NC(=O)[C@H](Cc1c[nH]c2ccccc12)NC(=O)[C@H](CCC(N)=O)NC(=O)[C@@H](NC(=O)[C@H](Cc1ccccc1)NC(=O)[C@H](CC(=O)O)NC(=O)[C@H](CCC(N)=O)NC(=O)[C@H](C)NC(=O)[C@H](CCCNC(=N)N)NC(=O)[C@H](CCCNC(=N)N)NC(=O)[C@H](CO)NC(=O)[C@H](CC(=O)O)NC(=O)[C@H](CC(C)C)NC(=O)[C@H](Cc1ccc(O)cc1)NC(=O)[C@H](CCCCN)NC(=O)[C@H](CO)NC(=O)[C@H](Cc1ccc(O)cc1)NC(=O)[C@H](CC(=O)O)NC(=O)[C@H](CO)NC(=O)[C@@H](NC(=O)[C@@H](O)Cc1ccccc1)[C@@H](C)O)C(C)C)C(=O)N[C@@H](CC(N)=O)C(=O)N[C@H](C(N)=O)[C@@H](C)O
IC50 (nM) (cAMP, inhibit Glucagon) 0.1 nM or 0.2 nM [4]: 6.9 nM

GTFTSEYSKYLDSRRAQDFVQWLMNT-NH2 [[Glu^9]Glucagon(aa4-29)-NH2]
cAMP Inhibition IC50 [8]: 128 nM
cAMP (I/A)50, inhibition index [9]: 1380 ratio

B5: [hCys^9(SO3H)]Glucagon(aa4-29)-NH2 (peptide)
peptide: GTFTS[Abu(4-SO3H)]YSKYLDSRRAQDFVQWLMNT-NH2
modifications: N-terminus assumed
SMILES: CSCC[C@H](NC(=O)[C@H](CC(C)C)NC(=O)[C@H](Cc1c[nH]c2ccccc12)NC(=O)[C@H](CCC(N)=O)NC(=O)[C@@H](NC(=O)[C@H](Cc1ccccc1)NC(=O)[C@H](CC(=O)O)NC(=O)[C@H](CCC(N)=O)NC(=O)[C@H](C)NC(=O)[C@H](CCCNC(=N)N)NC(=O)[C@H](CCCNC(=N)N)NC(=O)[C@H](CO)NC(=O)[C@H](CC(=O)O)NC(=O)[C@H](CC(C)C)NC(=O)[C@H](Cc1ccc(O)cc1)NC(=O)[C@H](CCCCN)NC(=O)[C@H](CO)NC(=O)[C@H](Cc1ccc(O)cc1)NC(=O)[C@H](CCS(=O)(=O)O)NC(=O)[C@H](CO)NC(=O)[C@@H](NC(=O)[C@H](Cc1ccccc1)NC(=O)[C@@H](NC(=O)CN)[C@@H](C)O)[C@@H](C)O)C(C)C)C(=O)N[C@@H](CC(N)=O)C(=O)N[C@H](C(N)=O)[C@@H](C)O
cAMP IC50 [6]: 68.4 nM

FTSEYSKYLDSRRAQDFVQWLMNT-NH2 [[Glu^9]Glucagon(aa6-29)-NH2]
cAMP Inhibition IC50 [8]: 97 nM
cAMP (I/A)50, inhibition index [9]: 486 ratio
cAMP IC50 [7]: 97.2 nM

B6: [PLA6, D9, D28]Glucagon(aa6-29)-NH2 (peptide)
peptide: FTSDYSKYLDSRRAQDFVQWLMDT
modifications: N-terminal residue is phenyl lactic acid (PLA) in place of Phe 6; C-terminal amide
IC50 (nM) (cAMP, inhibit Glucagon) 0.1 nM or 0.2 nM [4]: 1.32 nM
Glucagon antagonism IC50(nM, inhibit 0.5 nM G) [10]: 9.03 nM

[PhLac]TSEYSKYLDSRRAQDFVQWLMNT-NH2 [[PLA6, E9]Glucagon(aa6-29)-NH2]
IC50 (nM) (cAMP, inhibit 0.8 mM Glucagon) [5]: 64.8 nM
Glucagon antagonism IC50(nM, inhibit 0.5 nM G) [10]: 23.8 nM
